Experimental findings from article PMC7334434 are described below.

The assay concerns the target 14-3-3β (UniProt P31946). As to the kind of experiment: co-IP. Particulars: reference: wild type.

For TFEB (from UniProt P19484) S138A, the “binding against the reference” value (sites S138) was “weaker”. For the substance TFEB (from UniProt P19484) S142A, the “binding against the reference” value (sites S142) was “weaker”.
